Source: US20170343560A1
Values belong to the substance of their own block, whether it stands above or below them.

Key:
[1] = target: bispecific effector function silent anti-ANG2/VEGF antibody; assay: bridging ELISA (Ex. 2), ANG2 bridges Bi-drug and Dig-drug; ANG2 25 ng/mL in cynomolgus pool plasma; cut off 0.05
[2] = target: bispecific effector function silent anti-ANG2/VEGF antibody; assay: bridging ELISA (Ex. 2), ANG2 bridges Bi-drug and Dig-drug; ANG2 50 ng/mL in cynomolgus pool plasma; cut off 0.05
[3] = target: bispecific effector function silent anti-ANG2/VEGF antibody; assay: bridging ELISA (Ex. 2), ANG2 bridges Bi-drug and Dig-drug; ANG2 100 ng/mL in cynomolgus pool plasma; cut off 0.05
[4] = target: bispecific effector function silent anti-ANG2/VEGF antibody; assay: bridging ELISA (Ex. 2), ANG2 bridges Bi-drug and Dig-drug; ANG2 1.56 ng/mL in cynomolgus pool plasma; cut off 0.05
[5] = target: bispecific effector function silent anti-ANG2/VEGF antibody; assay: bridging ELISA (Ex. 2), ANG2 bridges Bi-drug and Dig-drug; ANG2 12.5 ng/mL in cynomolgus pool plasma; cut off 0.05
[6] = target: bispecific effector function silent anti-ANG2/VEGF antibody; assay: bridging ELISA (Ex. 2), ANG2 bridges Bi-drug and Dig-drug; ANG2 3.13 ng/mL in cynomolgus pool plasma; cut off 0.05
[7] = target: bispecific effector function silent anti-ANG2/VEGF antibody; assay: bridging ELISA (Ex. 2), ANG2 bridges Bi-drug and Dig-drug; ANG2 6.25 ng/mL in cynomolgus pool plasma; cut off 0.05
[8] = target: bispecific effector function silent anti-ANG2/VEGF antibody; assay: bridging ELISA (Ex. 2), ANG2 bridges Bi-drug and Dig-drug; ANG2 0.195 ng/mL in cynomolgus pool plasma; cut off 0.05
[9] = target: bispecific effector function silent anti-ANG2/VEGF antibody; assay: bridging ELISA (Ex. 2), ANG2 bridges Bi-drug and Dig-drug; ANG2 0.391 ng/mL in cynomolgus pool plasma; cut off 0.05
[10] = target: bispecific effector function silent anti-ANG2/VEGF antibody; assay: bridging ELISA (Ex. 2), ANG2 bridges Bi-drug and Dig-drug; ANG2 0.781 ng/mL in cynomolgus pool plasma; cut off 0.05
[11] = target: bispecific effector function silent anti-ANG2/VEGF antibody; assay: bridging ELISA (Ex. 2), ANG2 bridges Bi-drug and Dig-drug; ANG2 0.0489 ng/mL in cynomolgus pool plasma; cut off 0.05
[12] = target: bispecific effector function silent anti-ANG2/VEGF antibody; assay: bridging ELISA (Ex. 2), ANG2 bridges Bi-drug and Dig-drug; ANG2 0.0977 ng/mL in cynomolgus pool plasma; cut off 0.05
[13] = target: bispecific effector function silent anti-ANG2/VEGF antibody; assay: bridging ELISA (Ex. 2), VEGF bridges Bi-drug and Dig-drug; VEGF 25 ng/mL in cynomolgus pool plasma
[14] = target: bispecific effector function silent anti-ANG2/VEGF antibody; assay: bridging ELISA (Ex. 2), VEGF bridges Bi-drug and Dig-drug; VEGF 50 ng/mL in cynomolgus pool plasma
[15] = target: bispecific effector function silent anti-ANG2/VEGF antibody; assay: bridging ELISA (Ex. 2), VEGF bridges Bi-drug and Dig-drug; VEGF 100 ng/mL in cynomolgus pool plasma
[16] = target: bispecific effector function silent anti-ANG2/VEGF antibody; assay: bridging ELISA (Ex. 2), VEGF bridges Bi-drug and Dig-drug; VEGF 1.56 ng/mL in cynomolgus pool plasma
[17] = target: bispecific effector function silent anti-ANG2/VEGF antibody; assay: bridging ELISA (Ex. 2), VEGF bridges Bi-drug and Dig-drug; VEGF 12.5 ng/mL in cynomolgus pool plasma
[18] = target: bispecific effector function silent anti-ANG2/VEGF antibody; assay: bridging ELISA (Ex. 2), VEGF bridges Bi-drug and Dig-drug; VEGF 3.13 ng/mL in cynomolgus pool plasma
[19] = target: bispecific effector function silent anti-ANG2/VEGF antibody; assay: bridging ELISA (Ex. 2), VEGF bridges Bi-drug and Dig-drug; VEGF 6.25 ng/mL in cynomolgus pool plasma
[20] = target: bispecific effector function silent anti-ANG2/VEGF antibody; assay: bridging ELISA (Ex. 2), VEGF bridges Bi-drug and Dig-drug; VEGF 0.391 ng/mL in cynomolgus pool plasma
[21] = target: bispecific effector function silent anti-ANG2/VEGF antibody; assay: bridging ELISA (Ex. 2), VEGF bridges Bi-drug and Dig-drug; VEGF 0.781 ng/mL in cynomolgus pool plasma
[22] = target: bispecific effector function silent anti-ANG2/VEGF antibody; assay: bridging ELISA (Ex. 2), VEGF bridges Bi-drug and Dig-drug; VEGF 0.195 ng/mL in cynomolgus pool plasma; cut off 0.05
[23] = target: bispecific effector function silent anti-ANG2/VEGF antibody; assay: bridging ELISA (Ex. 2), VEGF bridges Bi-drug and Dig-drug; VEGF 0.0489 ng/mL in cynomolgus pool plasma; cut off 0.05
[24] = target: human Fcgamma receptor I (human) (UniProt P12314); assay: SPR BIAcore T100, Bi-huFcyRI on SA-CAP chip, antibody 10 ug/mL injected 60 s, reference-subtracted response after injection
Sequence of UniProt P12314 (P12314 16-288 limits assumed): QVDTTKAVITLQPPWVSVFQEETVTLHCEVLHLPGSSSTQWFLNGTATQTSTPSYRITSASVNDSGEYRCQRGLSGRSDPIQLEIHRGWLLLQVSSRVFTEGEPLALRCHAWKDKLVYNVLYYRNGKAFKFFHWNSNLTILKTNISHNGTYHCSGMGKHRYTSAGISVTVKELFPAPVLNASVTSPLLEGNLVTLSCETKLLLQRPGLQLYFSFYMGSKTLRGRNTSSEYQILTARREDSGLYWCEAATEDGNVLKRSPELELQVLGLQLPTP

Sequence of VEGF (P15692 other isoform, or with tags, fused parts or gaps limits assumed): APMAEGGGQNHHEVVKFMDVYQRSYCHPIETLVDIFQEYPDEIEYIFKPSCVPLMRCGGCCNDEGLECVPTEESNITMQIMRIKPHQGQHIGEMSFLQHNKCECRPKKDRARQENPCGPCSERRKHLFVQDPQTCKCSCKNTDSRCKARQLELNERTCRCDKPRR
Sequence of ANG2 (O15123 19-496 limits assumed): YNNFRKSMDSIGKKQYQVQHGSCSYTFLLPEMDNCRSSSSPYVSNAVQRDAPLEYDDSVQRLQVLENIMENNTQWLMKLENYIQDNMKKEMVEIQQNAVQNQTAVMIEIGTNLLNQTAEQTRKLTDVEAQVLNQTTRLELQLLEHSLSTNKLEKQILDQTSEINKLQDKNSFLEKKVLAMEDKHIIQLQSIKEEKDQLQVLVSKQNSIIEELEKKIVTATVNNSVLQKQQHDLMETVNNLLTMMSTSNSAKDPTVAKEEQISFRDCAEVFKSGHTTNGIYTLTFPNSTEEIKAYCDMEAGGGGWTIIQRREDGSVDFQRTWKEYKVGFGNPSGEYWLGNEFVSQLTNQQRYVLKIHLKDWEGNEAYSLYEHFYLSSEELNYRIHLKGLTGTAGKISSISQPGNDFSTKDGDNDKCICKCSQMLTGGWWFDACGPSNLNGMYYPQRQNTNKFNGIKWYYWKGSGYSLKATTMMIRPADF

Substance: human IgG1 P329G L234A L235A I253A H310A H434A mutations (antibody)
signal (RU) [24]: 1.8 RU

Substance: human IgG1 with L234A L235A mutations (antibody)
signal (RU) [24]: 4 RU

Substance: human IgG4 (antibody)
signal (RU) [24]: 20.2 RU

Substance: human IgM (from UniProt P01871 1-453) (antibody)
signal (RU) [24]: 5.2 RU

Substance: mouse IgG2a (antibody)
signal (RU) [24]: 31.1 RU

Second part, the substance after the results:

OD 405 nm [1]: 0.052 OD 405 nm
OD 405 nm [2]: 0.076 OD 405 nm
OD 405 nm [3]: 0.14 OD 405 nm
OD 405 nm [4]: 0.024 OD 405 nm
OD 405 nm [5]: 0.038 OD 405 nm
OD 405 nm [6]: 0.028 OD 405 nm
OD 405 nm [7]: 0.031 OD 405 nm
OD 405 nm [8]: 0.024 OD 405 nm
OD 405 nm [9]: 0.022 OD 405 nm
OD 405 nm [10]: 0.024 OD 405 nm
OD 405 nm [11]: 0.022 OD 405 nm
OD 405 nm [12]: 0.022 OD 405 nm
Substance: ANG2 (from UniProt O15123 19-496) (ligand)

OD 405 nm [13]: 1.69 OD 405 nm
OD 405 nm [14]: 2.34 OD 405 nm
OD 405 nm [15]: 2.83 OD 405 nm
OD 405 nm [16]: 0.138 OD 405 nm
OD 405 nm [17]: 0.921 OD 405 nm
OD 405 nm [18]: 0.274 OD 405 nm
OD 405 nm [19]: 0.51 OD 405 nm
OD 405 nm [20]: 0.058 OD 405 nm
OD 405 nm [21]: 0.083 OD 405 nm
OD 405 nm [22]: 0.039 OD 405 nm
OD 405 nm [23]: 0.025 OD 405 nm
Substance: VEGF (from UniProt P15692 27-191) (ligand)

signal (RU) [24]: 139 RU
Substance: human IgG1 (antibody)

signal (RU) [24]: 1.5 RU
Substance: human IgG1 with P329G L243A L235A mutations (antibody)

signal (RU) [24]: 2.6 RU
Substance: human IgG4 with S228P L235E mutations (antibody)

signal (RU) [24]: 3 RU
Substance: mouse IgG1 (antibody)
